Measurements reported in US12735488 (dated 2026).
Each block holds one binder with its values, some of them ahead of it.

Experiments:
[1] = target: hVISTA-ECD (human); assay: SPR pH 7.4, 37C
[2] = target: hVISTA-ECD (human); assay: SPR pH 7.4, low or no binding
[3] = target: hVISTA-ECD (human); assay: SPR pH 6.0, 37C
[4] = target: hVISTA-ECD (human); assay: SPR pH 6.0
[5] = target: hVISTA-ECD (human); assay: SPR pH 6.9
[6] = target: hVISTA-ECD (human); assay: SPR pH 6.45
[7] = target: hVISTA-ECD (human); assay: SPR pH 7.4, 37C; remark: listed apart in the source
[8] = target: hVISTA-ECD (human); assay: SPR pH 6.9, 37C
[9] = target: hVISTA-ECD (human); assay: SPR pH 7.4, 37C; remark: listed apart in the source
[10] = target: hVISTA-ECD (human); assay: SPR pH 6.0, 37C; remark: listed apart in the source
[11] = target: hVISTA-ECD (human); assay: SPR pH 6.0, 37C; remark: listed apart in the source
[12] = target: hVISTA-ECD (human); assay: SPR pH 6.0, 37C; remark: listed apart in the source
[13] = target: hVISTA-ECD (human); assay: SPR pH 6.45, 37C
[14] = target: hVISTA-ECD (human); assay: SPR pH 6.45, low or no binding
[15] = target: hVISTA-ECD (human); assay: SPR pH 7.4, 37C; remark: listed apart in the source
[16] = target: hVISTA-ECD (human); assay: SPR pH 6.9, low or no binding

Sequence of hVISTA-ECD (human) (chain, as listed by the source): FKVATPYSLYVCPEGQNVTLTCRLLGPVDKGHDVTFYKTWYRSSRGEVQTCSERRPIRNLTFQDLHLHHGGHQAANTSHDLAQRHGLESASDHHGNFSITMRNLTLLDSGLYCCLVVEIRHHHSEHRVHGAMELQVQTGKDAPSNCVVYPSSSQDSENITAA

binding result [1]: no binding
B1: P1-068748 (antibody, V domains shown)
VH: QVQLVESGGGVVQPGRSLRLSCAASGFTFSHHAMHWVRQAPGKGLEWVAIIWYDGSNDDYADSVKGRFTISRDNSKNTLYLQMNSLRAEDTAVYYCARDSGFYDSYYFDYWGQGTLVTVSS
VL: EIVLTQSPATLSLSPGERATLSCRASQSVSSSYLAWYQQKPGQAPRLLIYDASNRATGIPARFSGSGSGTDFTLTISSLEPEDFATYYCQQYNSYPYTFGQGTKLEIK

binding result [2]: no binding
B2: P1-068744 (antibody, V domains shown)
VH: QVQLVESGGGVVQPGRSLRLSCAASGFTFSEYAMHWVRQAPGKGLEWVAHIWYDGSNKYEADSVKGRFTISRDNSKNTLYLQMNSLRAEDTAVYYCARDSGFYESYYFDEWGQGTLVTVSS
VL: EIVLTQSPATLSLSPGERATLSCRASQSVSSSYLAWYQQKPGQAPRLLIYDASNRATGIPARFSGSGSGTDFTLTISSLEPEDFATYYCQQYNSYPYTFGQGTKLEIK

koff [3]: > 0.01 s⁻¹
B3: P1-068742 (antibody, V domains shown)
VH: QVQLVESGGGVVQPGRSLRLSCAASGFTFSDYAMHWVRQAPGKGLEWVAIIWYDGSDKDYADSVKGRFTISRDNSKNTLYLQMNSLRAEDTAVYYCARDSGFYEDYYFDYWGQGTLVTVSS
VL: EIVLTQSPATLSLSPGERATLSCRASQSVSSSYLAWYQQKPGQAPRLLIYDASNRATGIPARFSGSGSGTDFTLTISSLEPEDFATYYCQQYNSYPYTFGQGTKLEIK

koff [3]: > 0.01 s⁻¹
B4: P1-068746 (antibody, V domains shown)
VH: QVQLVESGGGVVQPGRSLRLSCAASGFTFSSYAMHWVRQAPGKGLEWVAIIWYDGSNHHYADSVKGRFTISRDNSKNTLYLQMNSLRAEDTAVYYCARDSGFYDSYYFDYWGQGTLVTVSS
VL: EIVLTQSPATLSLSPGERATLSCRASQSVSSSYLAWYQQKPGQAPRLLIYDASNRATGIPARFSGSGSGTDFTLTISSLEPEDFATYYCQQYNSYPYTFGQGTKLEIK

Kd [4]: 6.78 nM | Kd [5]: 385 nM | Kd [6]: 31.8 nM | Kd [7]: 19000 nM | Kd [8]: 400 nM | Kd [9]: 19000 nM | Kd [10]: 7.8 nM | Kd [11]: 7.6 nM | Kd [12]: 3.4 nM | Kd [13]: 38 nM | binding result [2]: no binding
B5: P1-068767 (antibody, V domains shown)
VH: EVQLVESGGGLVQPGKSLRLSCAASGFTLEDYAMHWVRQAPGKGLEWVSGIDWNSENIGYADSVKGRFTISRDNAKNSLYLQMNSLRTEDTALYYCAKVPGYSGGWIDAEDDWGQGTMVTVSS
VL: not shown

Kd [9]: 22000 nM | Kd [10]: 8 nM
B6: P1-068767 hIgG1f (antibody, V domains shown)
VH: EVQLVESGGGLVQPGKSLRLSCAASGFTLEDYAMHWVRQAPGKGLEWVSGIDWNSENIGYADSVKGRFTISRDNAKNSLYLQMNSLRTEDTALYYCAKVPGYSGGWIDAEDDWGQGTMVTVSS
VL: not shown

binding result [2]: no binding
B7: P1-068761 (antibody, V domains shown)
VH: EVQLVESGGGLVQPGKSLRLSCAASGFTLEDEAMHWVRQAPGKGLEWVSGINWNSEEIGYADSVKGRFTISRDNAKNSLYLQMNSLRTEDTALYYCAKVPGYSHGWIDAEDVWGQGTMVTVSS
VL: not shown

binding result [2]: no binding
B8: P1-070872 (P1-068761_H100G) (antibody, V domains shown)
VH: EVQLVESGGGLVQPGKSLRLSCAASGFTLEDEAMHWVRQAPGKGLEWVSGINWNSEEIGYADSVKGRFTISRDNAKNSLYLQMNSLRTEDTALYYCAKVPGYSGGWIDAEDVWGQGTMVTVSS
VL: not shown

binding result [14]: no binding
B9: P1-068759 (antibody, V domains shown)
VH: EVQLVESGGGLVQPGKSLRLSCAASGFTLEDEAMHWVRQAPGKGLEWVSGIDWNSENIGYADSVKGRFTISRDNAKNSLYLQMNSLRTEDTALYYCAKVPGYSGGWIDAEDDWGQGTMVTVSS
VL: not shown

binding result [2]: no binding
B10: P1-070900 (P1-068761_E56N_H100G) (antibody, V domains shown)
VH: EVQLVESGGGLVQPGKSLRLSCAASGFTLEDEAMHWVRQAPGKGLEWVSGINWNSENIGYADSVKGRFTISRDNAKNSLYLQMNSLRTEDTALYYCAKVPGYSGGWIDAEDVWGQGTMVTVSS
VL: not shown

binding result [2]: no binding
B11: P1-070864 (P1-068761_E30D) (antibody, V domains shown)
VH: EVQLVESGGGLVQPGKSLRLSCAASGFTLDDEAMHWVRQAPGKGLEWVSGINWNSEEIGYADSVKGRFTISRDNAKNSLYLQMNSLRTEDTALYYCAKVPGYSHGWIDAEDVWGQGTMVTVSS
VL: not shown

Kd [9]: 8200 nM | Kd [10]: 4.1 nM
B12: P1-068761 hIgG1f afucosylated (antibody, V domains shown)
VH: EVQLVESGGGLVQPGKSLRLSCAASGFTLEDEAMHWVRQAPGKGLEWVSGINWNSEEIGYADSVKGRFTISRDNAKNSLYLQMNSLRTEDTALYYCAKVPGYSHGWIDAEDVWGQGTMVTVSS
VL: not shown

binding result [2]: no binding
B13: P1-070878 (P1-068761_E55A_E56N) (antibody, V domains shown)
VH: EVQLVESGGGLVQPGKSLRLSCAASGFTLEDEAMHWVRQAPGKGLEWVSGINWNSANIGYADSVKGRFTISRDNAKNSLYLQMNSLRTEDTALYYCAKVPGYSHGWIDAEDVWGQGTMVTVSS
VL: not shown

binding result [15]: no binding
B14: P1-068769 (antibody, V domains shown)
VH: EVQLVESGGGLVQPGKSLRLSCAASGFTLEDEAMHWVRQAPGKGLEWVSGINWNSDHIGYADSVKGRFTISRDNAKNSLYLQMNSLRTEDTALYYCAKVPGYSGGWIDAEDDWGQGTMVTVSS
VL: not shown

binding result [2]: no binding
B15: P1-068765 (antibody, V domains shown)
VH: EVQLVESGGGLVQPGKSLRLSCAASGFTDEDYAMHWVRQAPGKGLEWVSGINWNSEEIGYADSVKGRFTISRDNAKNSLYLQMNSLRTEDTALYYCAKVPGYSGGWIDAEDDWGQGTMVTVSS
VL: not shown

Kd [9]: 41 nM | Kd [10]: 6.9 nM
B16: P1-061029 hIgG1f afucosylated (antibody, V domains shown)
VH: EVQLVESGGGLVQPGKSLRLSCAASGFTLDDYAMHWVRQAPGKGLEWVSGINWNSANIGYADSVKGRFTISRDNAKNSLYLQMNSLRTEDTALYYCAKVPGYSGGWIDAFDVWGQGTMVTVSS
VL: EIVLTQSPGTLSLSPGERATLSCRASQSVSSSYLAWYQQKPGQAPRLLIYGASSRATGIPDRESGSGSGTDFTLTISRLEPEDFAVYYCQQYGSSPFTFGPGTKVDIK

Kd [9]: 24000 nM | Kd [10]: 7.9 nM
B17: P1-068767 hIgG1f afucosylated (antibody, V domains shown)
VH: EVQLVESGGGLVQPGKSLRLSCAASGFTLEDYAMHWVRQAPGKGLEWVSGIDWNSENIGYADSVKGRFTISRDNAKNSLYLQMNSLRTEDTALYYCAKVPGYSGGWIDAEDDWGQGTMVTVSS
VL: not shown

binding result [15]: no binding
B18: P1-068775 (antibody, V domains shown)
VH: EVQLVESGGGLVQPGKSLRLSCAASGFTLEDEAMHWVRQAPGKGLEWVSGIDWNSEEIGYADSVKGRFTISRDNAKNSLYLQMNSLRTEDTALYYCAKVPGYSHGWIDAEDDWGQGTMVTVSS
VL: not shown

binding result [2]: no binding
B19: P1-070890 (P1-068761_E30D_E55A) (antibody, V domains shown)
VH: EVQLVESGGGLVQPGKSLRLSCAASGFTLDDEAMHWVRQAPGKGLEWVSGINWNSAEIGYADSVKGRFTISRDNAKNSLYLQMNSLRTEDTALYYCAKVPGYSHGWIDAEDVWGQGTMVTVSS
VL: not shown

binding result [16]: no binding
B20: P1-068757 (antibody, V domains shown)
VH: EVQLVESGGGLVQPGKSLRLSCAASGFTLEDEAMHWVRQAPGKGLEWVSGINWNSEEIGYADSVKGRFTISRDNAKNSLYLQMNSLRTEDTALYYCAKVPGYSGGWIDAEDDWGQGTMVTVSS
VL: not shown

binding result [2]: no binding
B21: P1-070870 (P1-068761_E56N) (antibody, V domains shown)
VH: EVQLVESGGGLVQPGKSLRLSCAASGFTLEDEAMHWVRQAPGKGLEWVSGINWNSENIGYADSVKGRFTISRDNAKNSLYLQMNSLRTEDTALYYCAKVPGYSHGWIDAEDVWGQGTMVTVSS
VL: not shown

binding result [2]: no binding
B22: P1-070904 (P1-068767_E30D) (antibody, V domains shown)
VH: EVQLVESGGGLVQPGKSLRLSCAASGFTLDDYAMHWVRQAPGKGLEWVSGIDWNSENIGYADSVKGRFTISRDNAKNSLYLQMNSLRTEDTALYYCAKVPGYSGGWIDAEDDWGQGTMVTVSS
VL: not shown

binding result [2]: no binding
B23: P1-070922 (P1-068767_E30D_E55A) (antibody, V domains shown)
VH: EVQLVESGGGLVQPGKSLRLSCAASGFTLDDYAMHWVRQAPGKGLEWVSGIDWNSANIGYADSVKGRFTISRDNAKNSLYLQMNSLRTEDTALYYCAKVPGYSGGWIDAEDDWGQGTMVTVSS
VL: not shown

Kd [11]: 9.4 nM
B24: P1-068773 (antibody, V domains shown)
VH: EVQLVESGGGLVQPGKSLRLSCAASGFTLEDYAMHWVRQAPGKGLEWVSGIDWNSDNIGYADSVKGRFTISRDNAKNSLYLQMNSLRTEDTALYYCAKVPGYSGGWIDAEDDWGQGTMVTVSS
VL: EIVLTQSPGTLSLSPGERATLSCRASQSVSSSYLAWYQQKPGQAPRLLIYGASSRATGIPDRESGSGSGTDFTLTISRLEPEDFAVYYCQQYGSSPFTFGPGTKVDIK

binding result [15]: no binding
B25: P1-068771 (antibody, V domains shown)
VH: EVQLVESGGGLVQPGKSLRLSCAASGFTLEDEAMHWVRQAPGKGLEWVSGINWNSHEIGYADSVKGRFTISRDNAKNSLYLQMNSLRTEDTALYYCAKVPGYSGGWIDAEDDWGQGTMVTVSS
VL: not shown
